The supplement of paper PMC6757056
± gives the standard deviation of the averaged measurements.

B1: library; a variant is named by its letters at N, in order (parent)
chain: GCUGUCACCGGUGCUUGGUACGUUAUAUUCAGCCGGUCUGAUGAGUCUNNNNNNAGACGAAACAGC

Tests used:
(6R,S)-folinic acid [1] = variants of: B1; assay: normalized RNA/DNA level without ligand (relative to sTRSVctl = 100) (log10 (% of sTRSVctl)); HEK293T overexpressing SLC46A1; higher = less ribozyme self-cleavage, higher mRNA level; conditions: without (6R,S)-folinic acid; ligand present: no
Method in brief: (§1)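 Ribozyme switch library plasmids with mCherry reporters (eGFP in certain ligand experiments) went into HEK293T cells at 4 µg per 6-well well. Where ligand was used, it was applied 1 h before transfection, and total RNA was extracted with EDTA 72 h later for reverse transcription, amplification, barcoding and sequencing. RNA level is the RNA-to-DNA read ratio normalized to a spiked-in non-cleaving sequence or to the leading sequences, then scaled and log-transformed. Scaling was ×100 with log10, the leading set comprised 25 sequences, and the cutoff was ≥100 DNA reads.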

(6R,S)-folinic acid [2] = variants of: B1; assay: normalized RNA/DNA level with ligand (relative to sTRSVctl = 100) (log10 (% of sTRSVctl)); HEK293T overexpressing SLC46A1; ligand concentration (+) RNA-Seq: 6 mM; higher = less ribozyme self-cleavage, higher mRNA level; conditions: with (6R,S)-folinic acid; ligand present: yes
Method in brief: as §1

Variant	normalized RNA/DNA level without ligand (log10) ((6R,S)-folinic acid [1])	normalized RNA/DNA level with ligand (log10) ((6R,S)-folinic acid [2])
GCUUAG	1.9687 ± 0.00031	2.015 ± 0.013
GCUUAU	1.942 ± 0.015	2.003 ± 0.006
UCUUGU	1.976 ± 0.014	2.02 ± 0.051
UCUUGA	1.987 ± 0.0069	2.025 ± 0.006
GCUGGA	2.06 ± 0.0022	2.07 ± 0.046
GCUGGG	1.979 ± 0.0048	2.01 ± 0.021
GCUGGC	1.964 ± 0.017	1.916 ± 0.0083
AGAAUC	2.0639 ± 0.001	2.05 ± 0.033
AGAAUA	1.9881 ± 0.00025	2.02 ± 0.037
AGAAUG	1.893 ± 0.0045	2 ± 0.039
UGAACC	2.011 ± 0.0035	2 ± 0.031
UGAACA	1.9795 ± 0.00092	2.01 ± 0.037
CCUUCG	2.017 ± 0.019	2.045 ± 0.012
CCUUCU	2.01 ± 0.024	2.02 ± 0.041
CCUUCC	2.067 ± 0.019	2.01 ± 0.024
CCUUCA	2.07 ± 0.021	2.04 ± 0.079
GCUGCU	2.04 ± 0.027	2.055 ± 0.018
CCUGUG	2.0488 ± 0.00073	2.03 ± 0.038
CCUGUA	2.018 ± 0.012	2.04 ± 0.022
CCUGUU	2.02 ± 0.021	2.015 ± 0.014
CCUGUC	2.022 ± 0.0031	2.01 ± 0.041
CCUUGG	2.047 ± 0.016	2.01 ± 0.022
CCUUGC	2.004 ± 0.0087	2.05 ± 0.039
CCUUGA	2.017 ± 0.0066	2.03 ± 0.027

Variant	normalized RNA/DNA level without ligand (log10) ((6R,S)-folinic acid [1])	normalized RNA/DNA level with ligand (log10) ((6R,S)-folinic acid [2])
CCUUGU	2.01 ± 0.04	2.005 ± 0.013
UCUGCU	2.069 ± 0.0056	2.07 ± 0.0045
AGAACA	2.007 ± 0.0027	2.02 ± 0.045
AGAACC	2.02 ± 0.0077	2.01 ± 0.049
AGAACU	2.036 ± 0.0042	2.075 ± 0.0036
AGAACG	1.954 ± 0.0051	2.018 ± 0.016
CGAACG	2.0268 ± 0.0006	2.024 ± 0.0057
CGAACU	2 ± 0.023	2 ± 0.05
ACUUCU	2.031 ± 0.0021	1.99 ± 0.059
ACUUCA	2.01 ± 0.03	2 ± 0.04
ACUUCG	1.968 ± 0.0047	2.02 ± 0.029
ACUUCC	2.058 ± 0.009	2.0589 ± 0.002
UCUUCA	2.028 ± 0.0079	2.04 ± 0.046
UCUUCC	2.026 ± 0.018	2.043 ± 0.018
UCUUCG	1.91 ± 0.02	2.0469 ± 0.0016
UCUUCU	2.064 ± 0.0051	2.095 ± 0.011
GCUUCG	2.024 ± 0.015	2.02 ± 0.025
GCUUCU	2.0037 ± 0.0006	2.01 ± 0.048
GCUUCC	2.029 ± 0.0087	2.04 ± 0.034
CGAAAC	1.985 ± 0.0043	1.99 ± 0.04
CGAAAU	1.942 ± 0.0046	1.967 ± 0.013
UGAAGC	1.964 ± 0.018	2 ± 0.021
CCUUAA	2.01 ± 0.0061	2.003 ± 0.013
CCUUAC	2.02 ± 0.027	2.056 ± 0.014

Variant	normalized RNA/DNA level without ligand (log10) ((6R,S)-folinic acid [1])	normalized RNA/DNA level with ligand (log10) ((6R,S)-folinic acid [2])
CCUUAG	1.934 ± 0.015	1.96 ± 0.046
UCUUAC	2.003 ± 0.0077	1.998 ± 0.0031
UCUUAU	2 ± 0.028	2 ± 0.013
UCUUAA	1.962 ± 0.011	2.002 ± 0.0044
CCUGGG	2.012 ± 0.01	2.017 ± 0.0021
CCUGGU	2.044 ± 0.0037	2.088 ± 0.011
CCUGGA	2.046 ± 0.0022	2.068 ± 0.0024
CCUGGC	2.051 ± 0.013	2.05 ± 0.045
CGAAUC	2.05 ± 0.019	2.03 ± 0.034
CGAAUG	2.0224 ± 0.0012	2.034 ± 0.012
GCUGUA	2.019 ± 0.018	2.04 ± 0.033
GCUGUC	2.0466 ± 0.00088	2.02 ± 0.026
GCUGUG	2.03 ± 0.028	2.04 ± 0.055
GGAACC	2.036 ± 0.01	2.04 ± 0.06
GGAACA	2.0061 ± 0.00047	2.02 ± 0.043
GGAACU	2.035 ± 0.01	2.029 ± 0.016
GGAACG	2 ± 0.027	2.03 ± 0.032
GGAAUA	2.022 ± 0.0049	2.04 ± 0.04
GCUUGC	2.052 ± 0.01	2.01 ± 0.022
GCUUGU	2.004 ± 0.017	2.04 ± 0.058
GCUUGA	1.999 ± 0.0031	2.024 ± 0.018
GCUUGG	1.932 ± 0.015	2.02 ± 0.028
CCUUUG	2.039 ± 0.017	2.01 ± 0.067
CCUUUU	2.031 ± 0.0026	2 ± 0.027

Variant	normalized RNA/DNA level without ligand (log10) ((6R,S)-folinic acid [1])	normalized RNA/DNA level with ligand (log10) ((6R,S)-folinic acid [2])
CCUUUC	2.062 ± 0.0044	2.01 ± 0.053
GGAAGC	1.9092 ± 0.0019	1.99 ± 0.044
GGAAGU	1.978 ± 0.0031	2.01 ± 0.032
GGAAGG	1.95 ± 0.022	2.03 ± 0.04
UCUUUG	1.81 ± 0.031	1.952 ± 0.019
UCUUUA	2.001 ± 0.0056	2 ± 0.015
UCUUUC	2.017 ± 0.0074	1.996 ± 0.0066
GGAAAU	1.98 ± 0.025	2.04 ± 0.027
ACUGUA	1.9633 ± 7.1e-05	2.026 ± 0.014
ACUGUU	2 ± 0.02	2.01 ± 0.037
ACUGUC	2.08 ± 0.024	2.04 ± 0.059
ACUGGC	2.045 ± 0.016	2.005 ± 0.016
ACUGGU	1.952 ± 0.016	2 ± 0.07
ACUGGA	1.943 ± 0.0043	2 ± 0.058
UGAAUC	2.07 ± 0.021	2.06 ± 0.047
UGAAUA	1.965 ± 0.0093	2.03 ± 0.026
AGAAGU	1.938 ± 0.007	1.9746 ± 0.00065
AGAAGC	2.004 ± 0.0023	2.049 ± 0.016
AGAAGA	1.949 ± 0.0067	2.02 ± 0.025
AGAAGG	1.931 ± 0.019	2.01 ± 0.037
GCUUUC	2.0144 ± 0.0002	2.01 ± 0.029
GCUUUU	2.01 ± 0.047	2.02 ± 0.035
GCUUUG	1.995 ± 0.015	2.02 ± 0.053
UCUGUA	1.961 ± 0.0025	2.04 ± 0.026

Variant	normalized RNA/DNA level without ligand (log10) ((6R,S)-folinic acid [1])	normalized RNA/DNA level with ligand (log10) ((6R,S)-folinic acid [2])
UCUGUG	1.773 ± 0.0022	2 ± 0.049
UCUGUC	2.056 ± 0.0093	2.07 ± 0.075
AGAAAU	2.026 ± 0.0034	2.01 ± 0.044
AGAAAC	2.0013 ± 0.00088	2.01 ± 0.026
AGAAAA	1.984 ± 0.0076	2 ± 0.034
AGAAAG	1.901 ± 0.0062	2.01 ± 0.022
ACUUGU	2.062 ± 0.011	2.064 ± 0.013
ACUUGA	1.9759 ± 0.0013	2.03 ± 0.041
ACUUGC	2.036 ± 0.0029	2.03 ± 0.03
UCUGGC	2.03 ± 0.022	2.0358 ± 0.00061
UCUGGU	1.9654 ± 0.0015	2.02 ± 0.032
CGAAGC	2.02 ± 0.033	2.04 ± 0.042
CGAAGG	1.859 ± 0.012	1.94 ± 0.022
CGAAGU	1.99 ± 0.03	2 ± 0.032
CGAAGA	1.986 ± 0.0023	2.01 ± 0.049
ACUUUG	1.94 ± 0.043	2.001 ± 0.015
ACUUUU	2.037 ± 0.012	2 ± 0.038
ACUUUC	2.041 ± 0.0054	2.05 ± 0.038
ACUGCG	1.902 ± 0.011	2.013 ± 0.013
ACUGCU	2.0021 ± 0.002	2.008 ± 0.015
